Reference: patent US20250011363A1, “OPTIMIZED SHORTENED PEPTIDE THAT BINDS TO ACETYLCHOLINE RECEPTOR, AND USE THEREOF” (SKINMED CO., LTD., priority 2021, published 2025)

What follows are binders tested against acetylcholine receptor (assay: SPR, receptor immobilized, peptide 10 uM).

Row | Binder | Binding affinity (RU) | Binding affinity [RU]
1 | KKWFTK [6mer-1-165] | 148 | –
2 | RKWQRR [6mer-1-194] | 144 | –
3 | KSIRRK [6mer-2-144] | – | 133
4 | RRRVYK [6mer-1-186] | 147 | –
5 | RQFYKR [6mer-2-152] | – | 139
6 | KWYQKK [6mer-2-141] | – | 154
7 | KGQQRK [6mer-2-149] | – | 127
8 | RSFLRR [6mer-2-158] | – | 145
9 | RVYSRR [6mer-2-153] | – | 124
10 | KRGICK [6mer-1-182] | 147 | –
11 | KKWQQR [6mer-1-153] | 146 | –
12 | RKQFQK [6mer-1-171] | 123 | –
13 | KKGVCR [6mer-1-174] | 154 | –
14 | RRLIRK [6mer-1-172] | 153 | –
15 | KKQIQR [6mer-1-147] | 125 | –
16 | KQLRKR [6mer-2-151] | – | 142
17 | KRLQTK [6mer-1-163] | 147 | –
18 | KKSLLR [6mer-1-157] | 123 | –
19 | RSYRKK [6mer-2-157] | – | 153

Row | Binder | Binding affinity (RU) | Binding affinity [RU]
20 | KRILKR [6mer-2-150] | – | 136
21 | RRWYSK [6mer-1-166] | 148 | –
22 | KRQICR [6mer-1-184] | 139 | –
23 | RRSVTK [6mer-1-156] | 154 | –
24 | RRRIQK [6mer-1-175] | 137 | –
25 | RRQQSK [6mer-1-169] | 153 | –
26 | KQRRRK [6mer-2-138] | – | 153
27 | KKSYSK [6mer-1-189] | 137 | –
28 | KRQYQR [6mer-1-192] | 127 | –
29 | RKSLQK [6mer-1-188] | 122 | –
30 | RQYYRK [6mer-2-159] | – | 127
31 | KKVYCK [6mer-1-176] | 121 | –
32 | RKLYYR [6mer-1-190] | 153 | –
33 | KRGRRR [6mer-1-146] | 139 | –
34 | KKQVQK [6mer-1-199] | 151 | –
35 | RRRIQR [6mer-1-201] | 151 | –
36 | KRLFCR [6mer-1-198] | 148 | –
37 | KGLQRR [6mer-2-156] | – | 127

Results, then the binder that gave them:

Row | Binding affinity (RU) | Binding affinity [RU] | Binder
38 | 139 | – | KRRYCK [6mer-1-161]
39 | – | 128 | RRVCRR [6mer-2-143]
40 | 131 | – | KRWFCK [6mer-1-168]
41 | 123 | – | RKQYYR [6mer-1-173]
42 | 139 | – | KRLRRK [6mer-1-159]
43 | – | 128 | RQYYKK [6mer-2-145]
44 | 127 | – | RRVRSR [6mer-1-155]
45 | 146 | – | RKLRCR [6mer-1-148]
46 | – | 135 | KQLLKR [6mer-2-146]
47 | 148 | – | KKGVLR [6mer-1-181]
48 | – | 121 | RWVLRR [6mer-2-142]
49 | – | 142 | KGRLKK [6mer-2-140]
50 | 131 | – | RRWVCK [6mer-1-149]
51 | 142 | – | RKRQCR [6mer-1-150]
52 | 142 | – | RKWRRK [6mer-1-196]
53 | 153 | – | KKLYSR [6mer-1-154]
54 | 145 | – | KRGQYK [6mer-1-164]
55 | – | 139 | KGVYKK [6mer-2-155]
56 | 142 | – | RKLYQR [6mer-1-200]
57 | 149 | – | RRVIQR [6mer-1-160]
58 | – | 149 | KLFRKK [6mer-2-139]

Row | Binding affinity (RU) | Binding affinity [RU] | Binder
59 | 121 | – | KKGQTR [6mer-1-183]
60 | 146 | – | RKLVRK [6mer-1-180]
61 | 122 | – | RRRYQR [6mer-1-167]
62 | 148 | – | KRSQYR [6mer-1-179]
63 | 139 | – | RKLFYK [6mer-1-187]
64 | 139 | – | RKRYQK [6mer-1-178]
65 | 145 | – | KRGVRR [6mer-1-151]
66 | – | 133 | RQYTKR [6mer-2-147]
67 | – | 145 | KGQYKK [6mer-2-148]
68 | 139 | – | KKQILK [6mer-1-191]
69 | 149 | – | KRVQLK [6mer-1-193]
70 | 131 | – | RRLIYR [6mer-1-158]
71 | 139 | – | RRSIRR [6mer-1-197]
72 | 122 | – | KRGISR [6mer-1-195]
73 | 154 | – | KRVIRR [6mer-1-152]
74 | – | 148 | KRVTKR [6mer-2-154]
75 | – | 135 | KVFCKK [6mer-2-137]
76 | 153 | – | KRQLRK [6mer-1-185]
77 | 121 | – | KRGYRR [6mer-1-177]
78 | 142 | – | KKSLSK [6mer-1-162]
79 | 148 | – | RKSFYR [6mer-1-170]
